Reference: publication PMC2932728, “The Canine Papillomavirus and Gamma HPV E7 Proteins Use an Alternative Domain to Bind and Destabilize the Retinoblastoma Protein” (PLoS Pathogens, 2010)

T1: GST HPV16 E7CR1CR2 (human papillomavirus type 16 (HPV16), UniProt P03129 1-38)
T1 construct: E7 protein of human papillomavirus type 16, CR1 and CR2 domains; also called the combined CR domains; source: E. coli BL21pLysS, purified (glutathione-Sepharose)
T1 chain: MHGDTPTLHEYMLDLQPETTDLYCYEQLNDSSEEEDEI

B1: human retinoblastoma tumor suppressor protein pRb (natural protein, human (endogenous in Jurkat), UniProt P06400 1-928, looked up)
chain: MPPKTPRKTAATAAAAAAEPPAPPPPPPPEEDPEQDSGPEDLPLVRLEFEETEEPDFTALCQKLKIPDHVRERAWLTWEKVSSVDGVLGGYIQKKKELWGICIFIAAVDLDEMSFTFTELQKNIEISVHKFFNLLKEIDTSTKVDNAMSRLLKKYDVLFALFSKLERTCELIYLTQPSSSISTEINSALVLKVSWITFLLAKGEVLQMEDDLVISFQLMLCVLDYFIKLSPPMLLKEPYKTAVIPINGSPRTPRRGQNRSARIAKQLENDTRIIEVLCKEHECNIDEVKNVYFKNFIPFMNSLGLVTSNGLPEVENLSKRYEEIYLKNKDLDARLFLDHDKTLQTDSIDSFETQRTPRKSNLDEEVNVIPPHTPVRTVMNTIQQLMMILNSASDQPSENLISYFNNCTVNPKESILKRVKDIGYIFKEKFAKAVGQGCVEIGSQRYKLGVRLYYRVMESMLKSEEERLSIQNFSKLLNDNIFHMSLLACALEVVMATYSRSTSQNLDSGTDLSFPWILNVLNLKAFDFYKVIESFIKAEGNLTREMIKHLERCEHRIMESLAWLSDSPLFDLIKQSKDREGPTDHLESACPLNLPLQNNHTAADMYLSPVRSPKKKGSTTRVNSTANAETQATSAFQTQKPLKSTSLSLFYKKVYRLAYLRLNTLCERLLSEHPELEHIIWTLFQHTLQNEYELMRDRHLDQIMMCSMYGICKVKNIDLKFKIIVTAYKDLPHAVQETFKRVLIKEEEYDSIIVFYNSVFMQRLKTNILQYASTRPPTLSPIPHIPRSPYKFPSSPLRIPGGNIYISPLKSPYKISEGLPTPTKMTPRSRILVSIGESFGTSEKFQKINQMVCNSDRVLKRSAEGSNPPKPLKKLRFDIEGSDEADGSKHLPGESKFQQKLAEMTSTRTRMQKQKMNDSMDTSNKEEK
notes: retinoblastoma protein pRb, human, endogenous in Jurkat cell nuclear extract; also called human pRb; source: endogenous, Jurkat cell nuclear extract

Tests used:
pRb = assay: GST pull-down, Western blot with anti-pRb antibody, densitometry; settings: binding normalized to GSTE7 protein; wild type CPV-2 E7 GST fusion set to 100%; parent: 100
GST HPV16 E7CR1CR2 = molecular target: T1, GST HPV16 E7CR1CR2; assay: pull-down; 5 µg GST fusion protein with 50 µg Jurkat cell nuclear extract, 1 h at 4°C in 20 mM Hepes/150 mM KCl/4 mM MgCl2/1 mM EDTA/0.02% Nonidet P-40/10% glycerol; glutathione-Sepharose beads; Western blot for pRb and GST, densitometry normalised to GSTE7, wild type CPV-2 E7 set to 100%; settings: one partner purified

Molecule	percent of parent (pRb) [%]	fold pRb bound against the HPV16 E7 carboxyl-terminus domain (GST HPV16 E7CR1CR2) [fold]
GST CPV-2 E7 wild type fusion protein S26C	147	
GST CPV-2 E7 wild type fusion protein S26G	99	
B1		6
